The supplement of paper PMC12636428

The sequences below were run on Saccharomyces cerevisiae (assay: transcriptional activation domain activity (GFP:mCherry ratio, weighted mean of sorted bins, harmonized to initial dataset scale) (arbitrary fluorescence ratio units); higher = stronger transcriptional activation). Details: beta-estradiol 1 µM; induction time 4 h.
In short: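 After a 1:5 dilution into SC with 1 uM beta-estradiol and 4 hours at 30 °C, yeast diploids carrying a GFP reporter and URA3-integrated barcoded tiles were sorted into 8 bins by GFP:mCherry ratio. The tiles were fused to an estradiol-inducible synthetic transcription factor. Barcodes were sequenced, tiles below 50 reads were discarded, and activation activity was taken as the read-weighted mean of bin median fluorescence, averaged across barcodes and linearly mapped onto the initial dataset scale.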

Sequence	transcriptional activation domain activity
IRIADMHANFFYKNINYTLSLFIFQIWCHFNSTYLFDYTLLMLFNLLFTSLPV	37100
TSPAPASSANGPAPPRRKRQATTAACRACRKRKSKCDGARPTCSVCRDRKTKC	13100
KSWGKSLVGLMGRLKRQPICVLVKTDEINHLLHMILYVRENEETSCIKIVHFC	37900
MRMLLYLLIHFIFMGVWTWLSWFSEVELLMVVLGLLETCFELTDMCGFCIFFV	69500
YYGRTIVRTNFWLKTYINFEIDALLLNGRATVRRFINHLYQDQRAKLFKECKH	54700
MEGSEKAARVAPPAQRVRTGCLTCRKRHLKCDEAKPTCENCRKGRRECVRGLR	6710
KTGEDRGRGRGRGRGKRKGEGRGGEGKTGEEGEEEEEEKGERREREREREKKK	23400
VFERVRLDWLILFDLRMWKKVRNDLRALYISTVVTIPEFKRILGLRFAALYTT	51300
KADEDAQTGEKRKAEEPAADTNGEKSKDEEPASKKAKTDEEEKTAGKAKKPGR	24000
YGVPIPQNSPATTTNLSGSVDEPQYQRRNIDFVRYDEEYVYHEDMDDELTMLH	28400
LALNDISRSVVAAGRVDGAVHITGVRDAVVAVAARQVRVHECRNVDLYLRCAS	44800
MFCLRSWLPLLFIPTNASPAFIFLFFVCTYFLNRPCVYCSFLLLILFATSCYW	36100
KGAKDEKKEDAKGGEEGKDATKQREKEESKGGKLESTPSKEFSDGKEQQEKKG	40400
MLCADLFFRFVLVKILVFILYDYGRGECDIVIMLVFFFFFPPPPPFFSFFFLF	65300
FPHNETLPALGQDGINEDNLNETIDNMLIFDFLDDGSENNQVKYSRIIPPDIR	89000
NITKILVMKFFTIDFTFTIMYITGLLITFLYYLVGYFQMNVKLLGSDRAYFAF	35700
MRQCCRCGDALKRCVILAVIAFGSVPPVYVGLVACARCRVWLFSPGLLYLKWF	55500
EKEARHAGRESRKAPEVREHRSSRRKDKERERSARPDNERRKTHVDGEDPEER	23800
KFYVIYTLFMVVFFMVLTICYYTNGSYGRDALGLCNFKEWNGRLVSRVYMMYL	45000

Sequence	transcriptional activation domain activity
FILGLIFVFAFVWHERSMAACPLIPIKAMTAQATFVLVCTATGWASFSIWIYY	60700
YASVLSLIMFFPLPFLSGEILDISRNCYILDVFFHWLMVVCGGLGSWAVFWST	78700
MPWFIVCPLIFCSFGPFDALLSVLFFFYEHHFLLVIFPLTLIMQFSFLLSYFS	53100
HSLISWLLKSLENGAGAIVIRKLCSALVTHFVRFSHLWPLCVRSLLYCLHANR	71400
TSTSGGSLFGGGSTAAPSTGSGGLFGNNSSTPATGAQPGTSLFGKPAGGATAG	14200
MPLFCSISPSFHESVHFWFFFFFFLSLTLFPSFRLVSYFCTFFLFLNWVNRGF	44800
IFRVTLLLVYFWTSSIIIGVTQYIGTPLYLISKDHYYRFMAFTKQCMTLLVLS	65400
EVKLEEAEATGASVKRKSRKSKIETDIADGADNEATPSGSRRRGRPRKSQPDP	59400
MSSSPTTGTSQDVQNRTVFTSRRRTAVACTNCRRRKLRCIPARVEEPATGPCA	35800
VVGISCCFLCMIVILLYFFPLLLFSSLRPLIYLVELLPLTCHIALGGSLYLTL	77600
ENEQDSLALDDLDRAFELVEGMDMDWMMPSHAHHSPATTATIKPRLLYSPLIH	74200
GSSGRRVRILGVCGLGRNYVMMRVIELGGILEGEVTIRRMAVSSHPSSVWIAT	67500
QELCRTANITYHRTSYPVVHRHLFSTPSLQRLMTWLKELPYQVAFQVELLVRG	49100
FISVYVPNFFVAFCLEMSQFFYLYQFMVMWLYYYWNYYVIGVIDTAIILVSAI	47100
SVLHTMYVVAIKDSSAWYGDSPADLCMIGFWNLVIVWLKLLIPWRFFRLWAIL	55900
LTYRVYIMGIGIWMTYLGIGWFLCIILPFLFRFCRLMFWWRKLCFLQALFFFF	62200
MVLVIQFYTVFFSFVYYFIFFSSSNLFSILCPPPPPPIIPIFCPLVGAFGFLF	42000
MMRKLAYFYALPEVQNSKVLQTIVKKGFVPLLIALIFPRVTEDQLRVVIRFCQ	50000
